In EP4545559A2 (INSTITUTO BUTANTAN, dated 2025):
Read-outs that look alike come from different tables or passages of the source.

Columns and labels:
[1] = target: T1, RBD Gamma (K417T/E484K/N501Y) (SARS-CoV-2, UniProt P0DTC2 319-541); assay: SPR, antigen on CM5 sensor
T1 construct: domain: RBD

RBD Delta (L452R/T478K) [2] = target: T2, RBD Delta (L452R/T478K) (SARS-CoV-2, UniProt P0DTC2 319-541); assay: SPR, antigen on CM5 sensor
T2 construct: domain: RBD

[3] = target: T3, RBD Omicron (G339D, S371L, S373P, S375F, K417N, N440K, G446S, S477N, T478K, E484A, Q493R, G496S, Q49 (SARS-CoV-2, UniProt P0DTC2 319-541)); assay: SPR, antigen on CM5 sensor
T3 construct: range 319-541

[4] = target: T3, RBD Omicron (G339D, S371L, S373P, …); assay: SPR kinetics; * dissociation in 360sec
[5] = target: T1, RBD Gamma (K417T/E484K/N501Y); assay: SPR kinetics; *** did not dissociate until 36000sec
RBD Delta (L452R/T478K) [6] = target: T2, RBD Delta (L452R/T478K); assay: as above
[7] = target: T1, RBD Gamma (K417T/E484K/N501Y); assay: SPR, antigen on CM5 sensor; remark: listed apart in the source
RBD Delta (L452R/T478K) [8] = target: T2, RBD Delta (L452R/T478K); assay: SPR, antigen on CM5 sensor; remark: listed apart in the source
[9] = target: T3, RBD Omicron (G339D, S371L, S373P, …); assay: SPR, antigen on CM5 sensor; remark: listed apart in the source
[10] = target: T1, RBD Gamma (K417T/E484K/N501Y); assay: SPR kinetics; *** did not dissociate until 36000sec; remark: listed apart in the source
RBD Delta (L452R/T478K) [11] = target: T2, RBD Delta (L452R/T478K); assay: as above; remark: listed apart in the source
[12] = target: T3, RBD Omicron (G339D, S371L, S373P, …); assay: as above
[13] = target: T1, RBD Gamma (K417T/E484K/N501Y); assay: SPR, antigen on CM5 sensor; remark: listed apart in the source
RBD Delta (L452R/T478K) [14] = target: T2, RBD Delta (L452R/T478K); assay: SPR, antigen on CM5 sensor; remark: listed apart in the source
[15] = target: T3, RBD Omicron (G339D, S371L, S373P, …); assay: SPR, antigen on CM5 sensor; remark: listed apart in the source
RBD Delta (L452R/T478K) [16] = target: T2, RBD Delta (L452R/T478K); assay: SPR kinetics; * dissociation in 360sec
[17] = target: T3, RBD Omicron (G339D, S371L, S373P, …); assay: SPR kinetics; * dissociation in 360sec; remark: listed apart in the source
[18] = target: T1, RBD Gamma (K417T/E484K/N501Y); assay: SPR kinetics; *** did not dissociate until 36000sec; remark: listed apart in the source
[19] = target: T1, RBD Gamma (K417T/E484K/N501Y); assay: SPR, antigen on CM5 sensor; remark: listed apart in the source
RBD Delta (L452R/T478K) [20] = target: T2, RBD Delta (L452R/T478K); assay: SPR, antigen on CM5 sensor; remark: listed apart in the source
[21] = target: T3, RBD Omicron (G339D, S371L, S373P, …); assay: SPR, antigen on CM5 sensor; remark: listed apart in the source
[22] = target: T3, RBD Omicron (G339D, S371L, S373P, …); assay: SPR kinetics; * dissociation in 360sec; remark: listed apart in the source
[23] = target: T1, RBD Gamma (K417T/E484K/N501Y); assay: SPR kinetics; *** did not dissociate until 36000sec; remark: listed apart in the source
RBD Delta (L452R/T478K) [24] = target: T2, RBD Delta (L452R/T478K); assay: as above; remark: listed apart in the source
[25] = target: T1, RBD Gamma (K417T/E484K/N501Y); assay: SPR, antigen on CM5 sensor; remark: listed apart in the source
RBD Delta (L452R/T478K) [26] = target: T2, RBD Delta (L452R/T478K); assay: SPR, antigen on CM5 sensor; remark: listed apart in the source
[27] = target: T3, RBD Omicron (G339D, S371L, S373P, …); assay: SPR, antigen on CM5 sensor; remark: listed apart in the source
RBD Delta (L452R/T478K) [28] = target: T2, RBD Delta (L452R/T478K); assay: SPR kinetics; ** dissociation in 36000sec
[29] = target: T1, RBD Gamma (K417T/E484K/N501Y); assay: SPR kinetics; *** did not dissociate until 36000sec; remark: listed apart in the source
[30] = target: T3, RBD Omicron (G339D, S371L, S373P, …); assay: as above; remark: listed apart in the source
[31] = target: T1, RBD Gamma (K417T/E484K/N501Y); assay: SPR, antigen on CM5 sensor; remark: listed apart in the source
RBD Delta (L452R/T478K) [32] = target: T2, RBD Delta (L452R/T478K); assay: SPR, antigen on CM5 sensor; remark: listed apart in the source
[33] = target: T3, RBD Omicron (G339D, S371L, S373P, …); assay: SPR, antigen on CM5 sensor; remark: listed apart in the source
[34] = target: T3, RBD Omicron (G339D, S371L, S373P, …); assay: SPR kinetics; ** dissociation in 36000sec
[35] = target: T1, RBD Gamma (K417T/E484K/N501Y); assay: SPR kinetics; *** did not dissociate until 36000sec; remark: listed apart in the source
RBD Delta (L452R/T478K) [36] = target: T2, RBD Delta (L452R/T478K); assay: as above; remark: listed apart in the source

B1: Monoclonal antibody S.11.1.C8 (antibody, V domains shown)
VH: QVQLVESGGGVVQPGRSLRLSCAASGFTFSTFSMHWVRQAPGKGLEWVAVILYDGTYKSYADSVKGRFTISRDNSGNTLFLQMNSLRAEDSAVYYCARDFGEMTTYFDFWGQGTLVTVSS
VL: DIQMTQPPSSLSASVGDRVTITCRASQSIGNNLNWYQQKPGKAPKLLIYVASSLQSGVPSRFSGSGSGTDFTLTISSLQPEDFATYFCQQSYSTPPWTFGQGTKVEIK
notes: also called mAb S.11.1.C8
Q: Which results are given for B1?
A: RU [1]: 360 RU; RU (RBD Delta (L452R/T478K) [2]): 799 RU; RU [3]: 166 RU; Kd [4]: 0.615 nM; Kd [5]: ~0.103 nM; Kd (RBD Delta (L452R/T478K) [6]): ~0.0131 nM

B2: Monoclonal antibody S.10.1.C6 (antibody, V domains shown)
VH: QLQLQESGPGLVKPSETLSLTCTVSGGSISSSSYYWGWIRQPPGKGLEWIGSFYYSGGSYYNPSLKSRVTISVDTSKNQFSLKLSSVTAADTAVYYCARDEHGDYAVGYWGQGTLVTVSS
VL: QSVLTQPPSVSGAPGQRVTISCTGSSSNIGAGYDVHWYQQLPGTAPKLLIYGNNNRPSGVPDRFSGSKSGTSASLAITGLQAEDEADYYCQSYDSSLSALYVFGTGTKVTVL
notes: also called S.10.1.C6 mAb
Q: For B2, which RU [7] is on record?
A: 134 RU

Q: What about the RU (RBD Delta (L452R/T478K) [8]) of the same binder?
A: 343 RU

Q: And the RU [9]?
A: 66 RU

Q: What about the Kd [10] of the same binder?
A: ~0.235 nM

Q: And the Kd (RBD Delta (L452R/T478K) [11])?
A: ~0.00812 nM

Q: And the Kd [12]?
A: ~0.804 nM

B3: Monoclonal antibody S.11.1.D12 (antibody, V domains shown)
VH: EVQLLESGGGLVQPGGSLRLSCAASGFPFITYPMSWVRQAPGKGLEWVSDIGGIGGSTSYADSVKGRFTISRDNYQNTVYLQMHSLRAEDTAVYYCAKWKSRVDSSYKGGGWFDSWGPGTLVTVSS
VL: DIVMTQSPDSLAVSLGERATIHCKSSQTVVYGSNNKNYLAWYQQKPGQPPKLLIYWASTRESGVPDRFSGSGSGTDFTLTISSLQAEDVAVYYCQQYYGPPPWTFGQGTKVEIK
notes: also called mAb S.11.1.D12
Q: Which results are given for B3?
A: RU [13]: 44 RU; RU (RBD Delta (L452R/T478K) [14]): 771 RU; RU [15]: 145 RU; Kd (RBD Delta (L452R/T478K) [16]): 0.636 nM; Kd [17]: 3.73 nM; Kd [18]: ~11 nM

B4: Monoclonal antibody S.9.4.C7 (antibody, V domains shown)
VH: QVQLVESGGGVVQPGRSLRLSCAASGFTFRNYAMHWVRQAPGKGLEWVTVISYDGSDKYYADSVKGRFTISRDNSKNTLYLQMNSLRAEDTAVYYCAKDPVGGYCSGGRCYFHSHYFDYWGQGTLVTVSS
VL: NFMLTQPHSVSESPGKTVTISCTRSSGSIASYYVQWYQQRPGSSPTTVISEDNQRPSGVPDRFSGSIDSSSNSASLTISGLKTEDEADYYCQSYDSNNHVIFGGGTKLTVL
notes: also called mAb S.9.4.C7
Q: For B4, which RU [19] is on record?
A: 481 RU

Q: And the RU (RBD Delta (L452R/T478K) [20])?
A: 1150 RU

Q: And the RU [21]?
A: 160 RU

Q: What about the Kd [22] of the same binder?
A: 1.31 nM

Q: And the Kd [23]?
A: ~0.205 nM

Q: What about the Kd (RBD Delta (L452R/T478K) [24]) of the same binder?
A: ~0.14 nM

B5: Monoclonal antibody S.9.2.D7 (antibody, V domains shown)
VH: EVQLLESGGGLIQTGGSLRLSCAASGFTFSSYAMSWVRQAPGKGLEWVSVISDSGGSTYYADSVKGRLTISRDNSKNTLYVQMNSLRAEDTAVYYCAKGKGGIAAAGPAFLFDYWGQGTLVTVSS
VL: DIQMTQSPSLLSASAGDRVTISCRMSQGISSYLAWYQQKPGKAPELLISSASTLQSGVPSRFSGSGSGTDFTLTISYLQSEDFATYYCQQYYSFPTTFGGGTKVEIK
notes: also called mAb S.9.2.D7
Q: Which RU [25] does the source give for B5 here?
A: 50 RU

Q: What about the RU (RBD Delta (L452R/T478K) [26]) of the same binder?
A: 0 RU

Q: And the RU [27]?
A: 0 RU

Q: What about the Kd (RBD Delta (L452R/T478K) [28]) of the same binder?
A: 0.00184 nM

Q: What about the Kd [29] of the same binder?
A: ~0.000237 nM

Q: And the Kd [30]?
A: ~0.00629 nM

B6: Monoclonal antibody S.9.4.F4 (antibody, V domains shown)
VH: QVQLVESGGGVVQPGRSLRLSCAASGFTFSHYGMHWVRQAPGKGLEWVAVILYDGSNEYYADSVKGRFTISRDNSKNTLYLQMNSLRAEDTAVYYCAKGAGTYCSGGNCYVAYFDYWGQGTLVTVSS
VL: AIRMTQSPSSLSASVGDRVTITCQASQDISNYLNWYQQKPGKAPKLLIYDASNLETGVPSRFSGSGSGTDFTVTISSLQPEDFATYYCQQYDNLPLTFGGGTKVEIK
notes: also called mAb S.9.4.F4
Q: How did the RU [31] turn out when B6 was run?
A: 160 RU

Q: What about the RU (RBD Delta (L452R/T478K) [32]) of the same binder?
A: 373 RU

Q: And the RU [33]?
A: 74 RU

Q: And the Kd [34]?
A: 0.231 nM

Q: What about the Kd [35] of the same binder?
A: ~0.0187 nM

Q: And the Kd (RBD Delta (L452R/T478K) [36])?
A: ~0.00122 nM
